B1: LARGE1^ecto (soluble secreted ectodomain of human LARGE1 with its coiled-coil domain, residues 29-756) (domain or fragment, UniProt O95461 29-756, looked up)
chain: LFSGSFEDGKPVSLSPLESQAHSPRYTASSQRERESLEVRMREVEEENRALRRQLSLAQGRAPSHRRGNHSKTYSMEEGTGDSENLRAGIVAGNSSECGQQPVVEKCETIHVAIVCAGYNASRDVVTLVKSVLFHRRNPLHFHLIADSIAEQILATLFQTWMVPAVRVDFYNADELKSEVSWIPNKHYSGIYGLMKLVLTKTLPANLERVIVLDTDITFATDIAELWAVFHKFKGQQVLGLVENQSDWYLGNLWKNHRPWPALGRGYNTGVILLLLDKLRKMKWEQMWRLTAERELMGMLSTSLADQDIFNAVIKQNPFLVYQLPCFWNVQLSDHTRSEQCYRDVSDLKVIHWNSPKKLRVKNKHVEFFRNLYLTFLEYDGNLLRRELFGCPSEADVNSENLQKQLSELDEDDLCYEFRRERFTVHRTHLYFLHYEYEPAADSTDVTLVAQLSMDRLQMLEAICKHWEGPISLALYLSDAEAQQFLRYAQGSEVLMSRHNVGYHIVYKEGQFYPVNLLRNVAMKHISTPYMFLSDIDFLPMYGLYEYLRKSVIQLDLANTKKAMIVPAFETLRYRLSFPKSKAELLSMLDMGTLFTFRYHVWTKGHAPTNFAKWRTATTPYRVEWEADFEPYVVVRRDCPEYDRRFVGFGWNKVAHIMELDVQEYEFIVLPNAYMIHMPHAPSFDITKFRSNKQYRICLKTLKEEFQQDMSRRYGFAALKYLTAENNS
notes: Cloned into a modified pHLsec plasmid (BglII/NotI); also called Like-acetylglucosaminyltransferase 1; LARGE1-His WT
B2: LARGE1^ΔCC (soluble secreted ectodomain of human LARGE1 without its coiled-coil domain, residues 92-756) (domain or fragment, UniProt O95461 92-756, looked up)
chain: SHRRGNHSKTYSMEEGTGDSENLRAGIVAGNSSECGQQPVVEKCETIHVAIVCAGYNASRDVVTLVKSVLFHRRNPLHFHLIADSIAEQILATLFQTWMVPAVRVDFYNADELKSEVSWIPNKHYSGIYGLMKLVLTKTLPANLERVIVLDTDITFATDIAELWAVFHKFKGQQVLGLVENQSDWYLGNLWKNHRPWPALGRGYNTGVILLLLDKLRKMKWEQMWRLTAERELMGMLSTSLADQDIFNAVIKQNPFLVYQLPCFWNVQLSDHTRSEQCYRDVSDLKVIHWNSPKKLRVKNKHVEFFRNLYLTFLEYDGNLLRRELFGCPSEADVNSENLQKQLSELDEDDLCYEFRRERFTVHRTHLYFLHYEYEPAADSTDVTLVAQLSMDRLQMLEAICKHWEGPISLALYLSDAEAQQFLRYAQGSEVLMSRHNVGYHIVYKEGQFYPVNLLRNVAMKHISTPYMFLSDIDFLPMYGLYEYLRKSVIQLDLANTKKAMIVPAFETLRYRLSFPKSKAELLSMLDMGTLFTFRYHVWTKGHAPTNFAKWRTATTPYRVEWEADFEPYVVVRRDCPEYDRRFVGFGWNKVAHIMELDVQEYEFIVLPNAYMIHMPHAPSFDITKFRSNKQYRICLKTLKEEFQQDMSRRYGFAALKYLTAENNS
notes: residues 134 to 752 are modelled in the crystal structure; Cloned into a modified pHLsec plasmid; also called LARGE1 without CC; LARGE1- CC

Target: the molecule itself
Test: mass photometry; Refeyn One MP; LARGE1 samples diluted in TBS to approximately 30 nM (2.5 ug/ml), room temperature, 60 second recordings; monomer to dimer

Protein	stoichiometry N
B1	2
B2	2

— article PMC9746966, “Structural basis for matriglycan synthesis by the LARGE1 dual glycosyltransferase” (PLOS ONE, 2022)
